Laboratory results from patent US20250346685A1 (published 2025).

Columns and labels:
[1] = target: T1, human CD3 on T cells (Jurkat cells; human peripheral blood CD4+ and CD8+ T-cells) (human, UniProt P07766 23-207); assay: flow cytometry on Jurkat cells
T1 construct: whole, on cells; also called CD4T; CD4 + T
Experimental: Jurkat cells in logarithmic growth phase were blocked with 3% BSA for 30 min, added to 96-well U-plate at 5×10^4 cells per well, centrifuged to discard the supernatant, and added with 50 μL of gradient diluted antibody (antibody concentration:from 30 μg/mL, with 3-fold dilution for 5 gradients) per well, and incubated at 4° C. for 1 hour. After washing off the primary antibody, a 1:300 dilution of Alexa Fluro647 labeled goat anti-human IgG Fc (Jackson ImmunoResearch, 109-606-170) was added to the secondary antibody, incubated for 45 min at 4° C., and, after washing, resuspended in 50 μL of PBS per well for FACS (iQue, intellicyt) detection.

[2] = target: T2, Cynomolgus monkey CD3εγ-Fc heterodimer (cynomolgus monkey); assay: ELISA, coated cynomolgus monkey CD3εγ protein
T2 construct: also called cynomolgus monkey CD3εγ protein
T2 chain 1: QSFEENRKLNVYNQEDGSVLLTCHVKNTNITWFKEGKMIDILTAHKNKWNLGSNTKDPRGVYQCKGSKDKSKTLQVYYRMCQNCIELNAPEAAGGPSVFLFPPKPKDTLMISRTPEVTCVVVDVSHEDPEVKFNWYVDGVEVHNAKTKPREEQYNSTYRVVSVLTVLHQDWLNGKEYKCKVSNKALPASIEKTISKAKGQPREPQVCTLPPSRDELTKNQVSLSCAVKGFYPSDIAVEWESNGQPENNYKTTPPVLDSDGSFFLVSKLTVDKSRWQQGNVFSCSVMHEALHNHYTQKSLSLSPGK
T2 chain 2: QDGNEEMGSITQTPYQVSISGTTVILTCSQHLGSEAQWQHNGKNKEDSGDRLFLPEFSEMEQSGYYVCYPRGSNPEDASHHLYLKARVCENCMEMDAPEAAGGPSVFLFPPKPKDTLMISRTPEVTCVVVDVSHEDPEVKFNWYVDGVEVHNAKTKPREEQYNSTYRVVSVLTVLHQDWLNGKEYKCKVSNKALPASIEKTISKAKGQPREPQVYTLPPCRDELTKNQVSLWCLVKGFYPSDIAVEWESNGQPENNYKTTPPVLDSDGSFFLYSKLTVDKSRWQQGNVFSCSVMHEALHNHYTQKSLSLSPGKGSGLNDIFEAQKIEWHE
Experimental: (§1) Human CD3εγ protein and cynomolgus monkey CD3εγ protein were coated separately overnight at 4° C. After blocking with 2% skim milk, different dilutions of CD3 antibody were added to each well and incubated for 1 hour. After the secondary antibody was developed by adding HPR-labeled goat anti-human IgG Fc and TMB solution, the reaction was stopped with concentrated sulfuric acid, and the absorbance was read at 450 nm.

[3] = target: T3, human CD3εγ-Fc heterodimer (human); assay: ELISA, coated human CD3εγ recombinant protein
T3 construct: also called human CD3εγ recombinant protein; human CD3εγ protein
T3 chain 1: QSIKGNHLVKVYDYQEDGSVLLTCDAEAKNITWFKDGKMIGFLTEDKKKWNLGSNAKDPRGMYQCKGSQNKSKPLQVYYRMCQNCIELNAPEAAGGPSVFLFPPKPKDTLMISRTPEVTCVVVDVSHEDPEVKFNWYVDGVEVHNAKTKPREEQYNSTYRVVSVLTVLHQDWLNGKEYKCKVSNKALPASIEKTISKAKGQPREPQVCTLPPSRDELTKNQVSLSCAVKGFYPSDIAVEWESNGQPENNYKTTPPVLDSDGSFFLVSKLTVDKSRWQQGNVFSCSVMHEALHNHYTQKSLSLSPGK
T3 chain 2: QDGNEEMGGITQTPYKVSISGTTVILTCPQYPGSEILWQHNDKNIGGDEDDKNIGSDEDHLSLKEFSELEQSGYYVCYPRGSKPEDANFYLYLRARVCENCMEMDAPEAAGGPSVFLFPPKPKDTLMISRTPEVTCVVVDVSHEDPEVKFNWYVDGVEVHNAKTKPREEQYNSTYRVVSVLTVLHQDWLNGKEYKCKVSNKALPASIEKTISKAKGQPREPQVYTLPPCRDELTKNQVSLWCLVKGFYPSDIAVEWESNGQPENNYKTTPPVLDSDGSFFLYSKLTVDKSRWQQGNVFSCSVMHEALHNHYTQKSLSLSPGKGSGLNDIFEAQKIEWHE
Experimental: as §1, with “CD3εγ recombinant” for “CD3εγ”, “was” for “and cynomolgus monkey CD3εγ protein were”, “coated” for “coated separately”, “acid” for “acid,”

[4] = target: T4, human CD20 on cells (CHO-human CD20 stably transfected cells; SU-DHL-4, Raji, NALM-6 tumor cells) (human, UniProt P11836 1-297); assay: flow cytometry on CHO-human CD20 stably transfected cells
T4 construct: whole, on cells; also called Human CD20-CHO; cellular CD20 receptor
T4 sequence (looked up): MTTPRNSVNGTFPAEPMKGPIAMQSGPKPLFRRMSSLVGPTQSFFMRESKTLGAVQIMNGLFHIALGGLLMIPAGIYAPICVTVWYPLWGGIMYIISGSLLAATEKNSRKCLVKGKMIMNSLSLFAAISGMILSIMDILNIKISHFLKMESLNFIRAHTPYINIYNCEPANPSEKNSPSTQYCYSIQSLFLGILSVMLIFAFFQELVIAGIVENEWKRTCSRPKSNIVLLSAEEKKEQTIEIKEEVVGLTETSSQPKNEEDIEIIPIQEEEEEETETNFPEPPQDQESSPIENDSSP
Experimental: (§2) CHO-human CD20 and CHO-cynomolgus monkey CD20 stably transfected cells prepared in Example 1 in logarithmic growth phase were adjusted to 5×10⁵ cells/ml with 4% calf serum (Hyclone, SH30626.06), 100 μl/well cell suspension was added to 96-well U-plate, 300 g thereof was centrifuged for 5 min, the supernatant was discarded, and 100 μL of gradient diluted antibody (with starting concentration of 1800 nM, 3-fold dilution, 10 gradients) was added to each well and incubated at 4° C. for 60 min. 50 μL/well Alexa Fluro647 labeled goat anti-human IgG Fc (1:300 dilution) was added to the secondary antibody and incubated on ice for 20 min. After washing once, 50 μL/well propidium iodide (PI) solution (1:300) was added, incubated for 5 min, and performed with detection by flow cytometry.

[5] = target: T5, cynomolgus monkey CD20 on CHO stably transfected cells (cynomolgus monkey, UniProt M4ZHZ6 1-297); assay: flow cytometry on CHO-cynomolgus monkey CD20 stably transfected cells
T5 construct: whole, on cells; also called Cynomolgus monkey CD20-CHO; CHO-cynomolgus monkey CD20
T5 sequence: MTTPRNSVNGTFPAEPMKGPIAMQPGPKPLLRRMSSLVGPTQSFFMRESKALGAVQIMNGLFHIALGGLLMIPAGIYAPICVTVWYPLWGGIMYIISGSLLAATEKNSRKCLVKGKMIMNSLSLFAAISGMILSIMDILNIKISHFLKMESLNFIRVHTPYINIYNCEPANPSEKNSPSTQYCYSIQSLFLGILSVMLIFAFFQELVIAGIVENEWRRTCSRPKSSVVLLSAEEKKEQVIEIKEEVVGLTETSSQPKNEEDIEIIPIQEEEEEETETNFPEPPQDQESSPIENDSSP
Experimental: as §2

B1: aCD3-hVH9/VL2 (antibody, human IgG4, V domains shown)
VH: EVQLVESGGGLVQPGGSLRLSCAASGFTFNTYAMNWVRKAPGKGLEWVGRIRSKYNNYATYYADSVKDRFTISRDDSKNSLYLQMNSLKTEDTAVYYCVRHGNFGNSYVSWFAYWGQGTLVTVSS
VL: QAVVTQEPSLTVSPGGTVTLTCRSSTGAVTTSNYANWVQEKPGQAPRGLIGGTNKRAPWTPARFSGSLLGGKAALTLSGAQPEDEAEYYCALWYSNLWVFGGGTKLTVL
notes: also called humanized anti-CD3 antibody hVH9/VL2
Q: With B1 as the binder, how does the “affinity (FACS)” value [1] read?
A: The value was 25 nM.

Q: Does B1 bind [2]?
A: Result: binds

Q: And the “affinity (ELISA)” value [3]?
A: Its value is 0.44 nM.

B2: aCD3-hVH9/VL5 (antibody, human IgG4, V domains shown)
VH: EVQLVESGGGLVQPGGSLRLSCAASGFTFNTYAMNWVRKAPGKGLEWVGRIRSKYNNYATYYADSVKDRFTISRDDSKNSLYLQMNSLKTEDTAVYYCVRHGNFGNSYVSWFAYWGQGTLVTVSS
VL: QAVVTQEPSLTVSPGGTVTLTCRSSTGAVTTSNYANWVQEKPGQAPRGLIGGTNKRAPWTPARFSGSLLGGKAALTITGAQAEDEAEYYCVLWYSNLWVFGGGTKLTVL
notes: also called humanized anti-CD3 antibody hVH9/VL5
Q: What does the source list for B2?
A: affinity (FACS) [1]: 20 nM; binding result [2]: binds; affinity (ELISA) [3]: 0.42 nM

B3: CD20 × CD3 κλ001 (bispecific antibody, human IgG4 S228P, kappa, lambda)
light 1: not shown
heavy 1: EVQLLESGGGVVQPGGSLRLSCAASGFTFNDYAMHWVRQAPGKGLEWVSTISWNSGSIGYADSVKGRFTISRDNSKNTLYLQMNSLRAEDTAVYYCAKDIQYGNYYYGMDYWGQGTLVTVSSASTKGPSVFPLAPCSRSTSESTAALGCLVKDYFPEPVTVSWNSGALTSGVHTFPAVLQSSGLYSLSSVVTVPSSSLGTKTYTCNVDHKPSNTKVDKRVESKYGPPCPPCPAPEFEGGPSVFLFPPKPKDTLMISRTPEVTCVVVDVSQEDPEVQFNWYVDGVEVHNAKTKPREEQFNSTYRVVSVLTVLHQDWLNGKEYKCKVSNKGLASSIEKTISKAKGQPREPQVCTLPPSQEEMTKNQVSLSCAVKGFYPSDIAVEWESNGQPENNYKTTPPVLDSDGSFFLVSKLTVDKSRWQEGNVFSCSVMHEALHNHYTQKSLSLSLGK
light 2: QAVVTQEPSLTVSPGGTVTLTCRSSTGAVTTSNYANWVQQKPGQAPRGLIGGTNKRAPWTPARFSGSLLGGKAALTITGAQAEDEAEYYCVLWYSNLWVFGGGTKLTVLGQPKAAPSVTLFPPSSEELQANKATLVCLISDFYPGAVTVAWKADSSPVKAGVETTTPSKQSNNKYAASSYLSLTPEQWKSHRSYSCQVTHEGSTVEKTVAPTECS
heavy 2: EVQLVESGGGLVQPGGSLRLSCAASGFTFNTYAMNWVRQAPGKGLEWVGRIRSKYNNYATYYADSVKDRFTISRDDSKNSLYLQMNSLKTEDTAVYYCVRHGNFGNSYVSWFAYWGQGTLVTVSSASTKGPSVFPLAPCSRSTSESTAALGCLVKDYFPEPVTVSWNSGALTSGVHTFPAVLQSSGLYSLSSVVTVPSSSLGTKTYTCNVDHKPSNTKVDKRVESKYGPPCPPCPAPEFEGGPSVFLFPPKPKDTLMISRTPEVTCVVVDVSQEDPEVQFNWYVDGVEVHNAKTKPREEQFNSTYRVVSVLTVLHQDWLNGKEYKCKVSNKGLASSIEKTISKAKGQPREPQVYTLPPCQEEMTKNQVSLWCLVKGFYPSDIAVEWESNGQPENNYKTTPPVLDSDGSFFLYSKLTVDKSRWQEGNVFSCSVMHEALHNHYTQKSLSLSLGK
notes: also called anti-CD20×CD3 κλ bispecific antibody
Q: Which results are given for B3?
A: EC50 [4]: 0.01 µM; EC50 [5]: 0.012 µM

B4: CD20 × CD3 κλ005 (bispecific antibody, human IgG4 S228P, kappa, lambda)
light 1: not shown
heavy 1: EVQLLESGGGVVQPGGSLRLSCAASGFTFNDYAMHWVRQAPGKGLEWVSTISWNSGSIGYADSVKGRFTISRDNSKNTLYLQMNSLRAEDTAVYYCAKDIQYGNYYYGMDYWGQGTLVTVSSASTKGPSVFPLAPCSRSTSESTAALGCLVKDYFPEPVTVSWNSGALTSGVHTFPAVLQSSGLYSLSSVVTVPSSSLGTKTYTCNVDHKPSNTKVDKRVESKYGPPCPPCPAPEFEGGPSVFLFPPKPKDTLMISRTPEVTCVVVDVSQEDPEVQFNWYVDGVEVHNAKTKPREEQFNSTYRVVSVLTVLHQDWLNGKEYKCKVSNKGLASSIEKTISKAKGQPREPQVCTLPPSQEEMTKNQVSLSCAVKGFYPSDIAVEWESNGQPENNYKTTPPVLDSDGSFFLVSKLTVDKSRWQEGNVFSCSVMHEALHNHYTQKSLSLSLGK
light 2: QAVVTQEPSLTVSPGGTVTLTCRSSTGAVTTSNYANWVQEKPGQAPRGLIGGTNKRAPWTPARFSGSLLGGKAALTITGAQAEDEAEYYCVLWYSNLWVFGGGTKLTVLGQPKAAPSVTLFPPSSEELQANKATLVCLISDFYPGAVTVAWKADSSPVKAGVETTTPSKQSNNKYAASSYLSLTPEQWKSHRSYSCQVTHEGSTVEKTVAPTECS
heavy 2: EVQLVESGGGLVQPGGSLRLSCAASGFTFNTYAMNWVRKAPGKGLEWVGRIRSKYNNYATYYADSVKDRFTISRDDSKNSLYLQMNSLKTEDTAVYYCVRHGNFGNSYVSWFAYWGQGTLVTVSSASTKGPSVFPLAPCSRSTSESTAALGCLVKDYFPEPVTVSWNSGALTSGVHTFPAVLQSSGLYSLSSVVTVPSSSLGTKTYTCNVDHKPSNTKVDKRVESKYGPPCPPCPAPEFEGGPSVFLFPPKPKDTLMISRTPEVTCVVVDVSQEDPEVQFNWYVDGVEVHNAKTKPREEQFNSTYRVVSVLTVLHQDWLNGKEYKCKVSNKGLASSIEKTISKAKGQPREPQVYTLPPCQEEMTKNQVSLWCLVKGFYPSDIAVEWESNGQPENNYKTTPPVLDSDGSFFLYSKLTVDKSRWQEGNVFSCSVMHEALHNHYTQKSLSLSLGK
notes: Human IgG4 knob-into-hole Fc; charge variants only in the CD3 arm; also called anti-CD20×CD3 κλ bispecific antibody
Q: Which EC50 [4] does the source give for B4 here?
A: Its EC50 is 0.009 µM.

Q: What about the EC50 [5] of the same binder?
A: Its EC50 is 0.014 µM.
